Biological target: RNA polymerase II;RECQL5 (Sus scrofa domesticus?;Homo sapiens, UniProt A0A8D1DPV6;A0A0B8RVL1;P19387;O15514;I3LSI7;P61218;P62487;P52434;P36954;P52435;P6 …, |)
Assay: cryo-EM; phosphorylated Pol II; 2.8 A; Mg, Zn in model
Conditions: protein: native;recombinant; tags: none;His6-MBP, TEV-cleaved; copies: 1;1;1;1;1;1;1;1;1;1;1;1;1

Sequence of RNA polymerase II;RECQL5 (O94762 whole entry, one chain of several): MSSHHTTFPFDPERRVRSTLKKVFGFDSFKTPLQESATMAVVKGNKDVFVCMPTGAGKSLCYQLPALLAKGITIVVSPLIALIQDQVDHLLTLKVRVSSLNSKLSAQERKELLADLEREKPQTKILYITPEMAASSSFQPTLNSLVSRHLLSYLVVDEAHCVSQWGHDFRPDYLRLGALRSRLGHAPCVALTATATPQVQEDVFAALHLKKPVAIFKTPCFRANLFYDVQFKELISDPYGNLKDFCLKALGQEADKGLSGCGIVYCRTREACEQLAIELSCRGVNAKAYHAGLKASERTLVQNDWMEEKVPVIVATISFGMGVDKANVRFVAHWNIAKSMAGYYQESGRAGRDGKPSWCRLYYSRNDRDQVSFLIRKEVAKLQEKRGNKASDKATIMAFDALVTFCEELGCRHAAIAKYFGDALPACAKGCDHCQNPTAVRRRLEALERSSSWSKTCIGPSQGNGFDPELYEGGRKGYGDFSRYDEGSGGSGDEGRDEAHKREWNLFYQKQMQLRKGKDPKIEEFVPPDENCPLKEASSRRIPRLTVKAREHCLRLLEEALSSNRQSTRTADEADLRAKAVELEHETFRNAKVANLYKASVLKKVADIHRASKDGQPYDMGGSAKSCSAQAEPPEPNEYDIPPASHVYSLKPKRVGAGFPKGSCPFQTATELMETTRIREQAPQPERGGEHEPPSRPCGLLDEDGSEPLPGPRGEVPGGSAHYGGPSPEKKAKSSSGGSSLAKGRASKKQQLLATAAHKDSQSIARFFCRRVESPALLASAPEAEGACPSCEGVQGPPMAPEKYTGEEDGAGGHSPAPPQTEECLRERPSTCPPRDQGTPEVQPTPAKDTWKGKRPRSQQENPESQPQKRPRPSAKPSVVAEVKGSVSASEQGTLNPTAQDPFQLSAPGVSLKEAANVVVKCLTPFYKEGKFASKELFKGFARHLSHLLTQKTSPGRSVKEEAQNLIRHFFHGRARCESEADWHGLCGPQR

B1: EC DNA-RNA scaffold (mixed)
DNA 1: GCTCCCAGCTCCCTGCTGGCTCCGAGTGGGTTCTGCCGCTCTCAATGG
DNA 2: CCATTGAGAGCGGCCCTTGTGTTCAGGAGCCAGCAGGGAGCTGGGAGC
RNA: GAGAGGGAACCCACU
B1: binds.
